Reference: patent US7674604 (CENTER FOR BLOOD RESEARCH, dated 2010)

How the values were obtained:
[1] = biological target: T1, ICAM-1 purified from human tonsil, coated on 96-well plates (human, UniProt P05362 28-532); assay: competition: soluble I-domain against adhesion of K562 cells with wild-type LFA-1 (activated by mAb CBRLFA-1/2) to plate-coated ICAM-1; cells bound (% of input)
T1 construct: mature; also called immobilized ICAM-1

murine ICAM-1 = murine ICAM-1 (murine, UniProt P13597 28-485, limits assumed); assay: cell-based or functional assay

B1: recombinant soluble αL I-domain K287C/K294C (G128 to Y307) stabilized in the open conformation, made in E. coli (receptor)
chain: GNVDLVFLFDGSMSLQPDEFQKILDFMKDVMKKLSNTSYQFAAVQFSTSYKTEFDFSDYVKRKDPDALLKHVKHMLLLTNTFGAINYVATEVFREELGARPDATKVLIIITDGEATDSGNIDAAKDIIRYIIGIGKHFQTKESQETLHKFASKPASEFVCILDTFECLKDLFTELQKKIY
modifications: chain 1: disulfide between C160 and C167 (mature C287, C294)
notes: also called open I-domain; soluble open I-domain
IC50 (read off the curve) [1]: ~200 nM | IC50 (read off the curve), PMA-induced homotypic aggregation of EL-4 cells (aggregation score 0 to 5) (murine ICAM-1): ~1000 nM
